# Data: patent publication US20240182953, “METHODS AND COMPOSITIONS FOR DETECTING A TARGET RNA” (The Regents of the University of California, published 2024)
# T1: LbuC2c2-dHEPN1/dHEPN2 (Leptotrichia buccalis, UniProt C7NBY4 SEQ:1-1159, R472A,H477A,R1048A,H1053A)
# T1 sequence: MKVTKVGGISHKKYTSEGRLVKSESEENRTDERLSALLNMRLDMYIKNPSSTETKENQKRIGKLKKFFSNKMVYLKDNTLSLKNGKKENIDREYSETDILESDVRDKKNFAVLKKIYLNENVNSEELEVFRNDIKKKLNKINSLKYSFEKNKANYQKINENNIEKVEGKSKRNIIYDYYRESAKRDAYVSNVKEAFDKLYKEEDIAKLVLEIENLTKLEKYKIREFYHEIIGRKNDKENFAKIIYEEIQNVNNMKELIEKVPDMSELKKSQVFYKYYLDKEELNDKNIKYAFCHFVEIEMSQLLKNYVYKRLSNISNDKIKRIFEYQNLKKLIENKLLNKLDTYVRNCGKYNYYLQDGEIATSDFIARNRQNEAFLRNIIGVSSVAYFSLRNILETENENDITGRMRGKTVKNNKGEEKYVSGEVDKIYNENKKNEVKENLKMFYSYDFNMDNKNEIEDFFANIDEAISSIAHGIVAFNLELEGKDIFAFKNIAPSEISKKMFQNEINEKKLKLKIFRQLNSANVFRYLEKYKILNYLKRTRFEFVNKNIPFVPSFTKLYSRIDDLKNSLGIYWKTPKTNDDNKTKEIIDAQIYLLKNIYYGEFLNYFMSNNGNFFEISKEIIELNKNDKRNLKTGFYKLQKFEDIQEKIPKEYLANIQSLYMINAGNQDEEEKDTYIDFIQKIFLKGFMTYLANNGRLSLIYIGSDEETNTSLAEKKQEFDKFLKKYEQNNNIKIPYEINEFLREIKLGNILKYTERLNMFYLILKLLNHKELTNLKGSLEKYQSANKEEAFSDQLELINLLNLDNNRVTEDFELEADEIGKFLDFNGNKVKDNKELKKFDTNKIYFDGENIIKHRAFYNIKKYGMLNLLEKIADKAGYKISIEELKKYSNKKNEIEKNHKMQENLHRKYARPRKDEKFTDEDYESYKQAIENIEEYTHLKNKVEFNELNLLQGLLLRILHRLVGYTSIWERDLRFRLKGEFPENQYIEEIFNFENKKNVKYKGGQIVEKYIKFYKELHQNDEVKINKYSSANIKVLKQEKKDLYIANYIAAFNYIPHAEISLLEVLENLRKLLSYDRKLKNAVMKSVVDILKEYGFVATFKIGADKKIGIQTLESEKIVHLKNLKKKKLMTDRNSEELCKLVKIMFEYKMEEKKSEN
# T2: LbuC2c2-R1079A (Leptotrichia buccalis, UniProt C7NBY4 SEQ:1-1159, R1079A)
# T2 sequence: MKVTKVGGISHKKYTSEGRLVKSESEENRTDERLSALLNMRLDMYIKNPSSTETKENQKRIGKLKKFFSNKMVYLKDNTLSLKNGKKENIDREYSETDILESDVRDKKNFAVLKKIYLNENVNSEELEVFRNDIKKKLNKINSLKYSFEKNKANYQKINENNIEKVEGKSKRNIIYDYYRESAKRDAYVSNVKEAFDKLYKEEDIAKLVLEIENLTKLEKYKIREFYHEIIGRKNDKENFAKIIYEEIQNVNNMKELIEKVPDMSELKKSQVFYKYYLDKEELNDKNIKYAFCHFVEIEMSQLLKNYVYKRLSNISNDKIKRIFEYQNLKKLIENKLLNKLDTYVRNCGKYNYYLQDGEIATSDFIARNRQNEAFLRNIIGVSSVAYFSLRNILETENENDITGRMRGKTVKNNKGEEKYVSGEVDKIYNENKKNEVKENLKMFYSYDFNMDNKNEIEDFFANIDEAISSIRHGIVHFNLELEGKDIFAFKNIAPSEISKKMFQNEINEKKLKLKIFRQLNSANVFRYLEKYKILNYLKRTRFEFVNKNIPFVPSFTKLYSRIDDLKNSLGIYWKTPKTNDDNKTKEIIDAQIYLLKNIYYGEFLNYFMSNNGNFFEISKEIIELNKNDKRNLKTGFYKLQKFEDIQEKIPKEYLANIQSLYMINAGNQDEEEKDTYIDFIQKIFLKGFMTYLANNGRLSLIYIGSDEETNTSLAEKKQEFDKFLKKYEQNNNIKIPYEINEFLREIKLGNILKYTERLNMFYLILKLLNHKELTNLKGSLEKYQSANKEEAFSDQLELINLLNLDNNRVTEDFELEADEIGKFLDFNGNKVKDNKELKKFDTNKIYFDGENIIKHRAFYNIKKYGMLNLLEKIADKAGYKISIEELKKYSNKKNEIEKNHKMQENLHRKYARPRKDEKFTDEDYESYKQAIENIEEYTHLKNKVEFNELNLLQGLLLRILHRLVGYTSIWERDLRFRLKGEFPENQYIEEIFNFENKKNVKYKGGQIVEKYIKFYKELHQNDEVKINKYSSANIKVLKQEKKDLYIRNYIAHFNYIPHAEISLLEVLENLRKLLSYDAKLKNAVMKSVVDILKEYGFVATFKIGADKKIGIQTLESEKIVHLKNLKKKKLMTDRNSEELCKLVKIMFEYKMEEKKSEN
# Columns and labels:
# LbuC2c2-dHEPN1/dHEPN2 = target: T1, LbuC2c2-dHEPN1/dHEPN2; assay: EMSA; ssRNA A, no Mg listed in EMSA buffer, 37 C; which A variant was used not stated; settings: tags: His6-MBP removed by TEV, label: 5'-32P, hairpin
# Protocol: (§1) The quantified data were fit to standard binding isotherms. Error bars represent the standard deviation from three independent experiments. […] Three independent experiments were conducted as described in the Methods. The gel was cropped for clarity. c, Quantified binding data from (b) were fitted to standard binding […]. Error bars represent the standard deviation from three independent experiments. […] The quantified data were fit to standard binding isotherms. Error bars represent the standard deviation from three independent experiments. Measured dissociation constants from three independent experiments (mean±sd) were 4.65±0.6 nM (LbuC2c2-WT) and 2.52±0.5 nM (LbuC2c2-R1079A). It is of note that these binding affinities differ from panel a. This difference is accounted for in a slight difference in the 5′ sequence of the guide with panel a guides beginning with a 5′-GGCCA . . . and panel d 5′-GACCA. While the native sequence guide (5′-GACCA) binds tighter to LbuC2c2, no difference is seen in the RNA targeting efficiencies of these guide variants (Extended Data FIG. 6c).
# Electrophoretic mobility-shift assays. […]
# LbuC2c2-R1079A = target: T2, LbuC2c2-R1079A; assay: filter; retains crRNA binding; Kd in truncated legend; settings: tags: His6-MBP removed by TEV; label: 5'-32P; hairpin
# Protocol: as §1
# crRNA filter-binding assays. Filter binding assays was carried out in RNA processing buffer (20 mM HEPES pH 6.8, 50 mM KCl, 5 mM MgCl₂, […], 0.01% Igepal CA-630 and 5% glycerol). LbuC2c2 was incubated with radiolabeled crRNA (<0.1 nM) for 1 hr at 37° C. […]
Binder,Kd (LbuC2c2-dHEPN1/dHEPN2) [nM],binding result (LbuC2c2-R1079A)
crRNA-A_GG (mature) ; target A ssRNA (ssRNA ; ssRNA) RNA 1: GGCCACCCCAAAAAUGAAGGGGACUAAAACAGGGGCAGAGAUGAUGACCCU RNA 2: GGCUCAUUUGCAGGGUUUAGCCAAAAGGGUCAUCAUCUCUGCCCCCUCUGCUGAUGCCCC,1.62,
crRNA-A_GA (mature) (ssRNA) RNA: GACCACCCCAAAAAUGAAGGGGACUAAAACAGGGGCAGAGAUGAUGACCCU,,binds
